The labels stand for the following.
B1: H3-C10 (antibody, V domains shown)
VH: QVQLVQSGAEVKKPGASVKVSCKASGYTFTDFSVHWVRQAPGQGLEWMGWINTETDETSYADDFKGRVTMTRDTSTSTVYMELSSLRSEDTAVYYCVKSLYWSYGPPDYWGQGTTVTVSS
VL: DIQMTQSPSSLSASVGDRVTITCRASQNIRTAVVWYQQKPGKAPKLLIYLATNRHSGVPSRFSGSGSGTDFTFTISSLQPEDIATYYCLQHWTYPFSFGGGTKLEIK
B2: H2-F11 (antibody, V domains shown)
VH: B1 VH with T55F, E57Y, L100R, Y101G
VL: B1 VL
B3: H2-A11 (antibody, V domains shown)
VH: B1 VH with T55Y, E57F, L100R, Y101G
VL: B1 VL
B4: H2-E7 (antibody, V domains shown)
VH: B1 VH with I51Y, T53L, L100R, Y101G
VL: B1 VL
B5: H3-H9 (antibody, V domains shown)
VH: B1 VH with L100R, Y101W
VL: B1 VL
B6: H3-F5 (antibody, V domains shown)
VH: B1 VH with Y101F
VL: B1 VL
B7: H2-F10 (antibody, V domains shown)
VH: B1 VH with T53L, T55F, L100R, Y101G
VL: B1 VL
B8: H2-C8 (antibody, V domains shown)
VH: B1 VH with D56R, E57G, L100R, Y101G
VL: B1 VL
B9: H2-A8 (antibody, V domains shown)
VH: B1 VH with T55F, E57F, L100R, Y101G
VL: B1 VL
B10: H2-E7-H3-4 (antibody, V domains shown)
VH: B1 VH with I51Y, T53L, L100R, Y101W
VL: B1 VL
B11: H2-C8-H3-3 (antibody, V domains shown)
VH: B1 VH with D56R, E57G
VL: B1 VL
B12: H2-A11-H3-2 (antibody, V domains shown)
VH: B1 VH with T55Y, E57F, Y101F
VL: B1 VL
B13: H2-A11-H3-3 (antibody, V domains shown)
VH: B1 VH with T55Y, E57F
VL: B1 VL
B14: H2-A11-H3-4 (antibody, V domains shown)
VH: B1 VH with T55Y, E57F, L100R, Y101W
VL: B1 VL
B15: H2-C8-H3-2 (antibody, V domains shown)
VH: B1 VH with D56R, E57G, Y101F
VL: B1 VL
B16: H2-E7-H3-2 (antibody, V domains shown)
VH: B1 VH with I51Y, T53L, Y101F
VL: B1 VL
B17: H2-C8-H3-4 (antibody, V domains shown)
VH: B1 VH with D56R, E57G, L100R, Y101W
VL: B1 VL
B18: H2-A11-H3-1 (antibody, V domains shown)
VH: B1 VH with T55Y, E57F, K98E
VL: B1 VL
B19: H2-E7-H3-3 (antibody, V domains shown)
VH: B1 VH with I51Y, T53L
VL: B1 VL
B20: mAb2 (antibody, V domains shown)
VH: B1 VH with L100R, Y101G
VL: B1 VL
B21: mAb1 (antibody, V domains shown)
VH: QIQLVQSGPELKKPGETVKISCKASGYTFTDFSIHWVKQAPGKGLKWMGWINTETDESTYADDFKGRFAFSLETSASTAYLQINNLKNEDTATYFCVKSRGWTYGPPDYWGQGTTLTVSS
VL: DIVMTQSQKFMSASVGDRVSITCKASQNVRTAVVWFQQKPGQSPNTLIYLASNRHSEVPDRFTGSGSGTDFTLTISNVQSEDLADYFCLQHWTYPFTFASGTKLEIK
B22: mAb4 (antibody, V domains shown)
VH: QVQLVQSGAEVKKPGASVKVSCKASGYTFTSSLIHWVRQAPGQGLEWMGYINPYNDGTKYNEKFKGRVTMTRDTSTSTVYMELSSLRSEDTAVYYCARMDYGNLWYFDVWGQGTLVTVSS
VL: EIVLTQSPATLSLSPGERATLSCRASENIYYSLAWYQQKPGQAPRLLIYNANSLEDGIPARFSGSGSGTDFTLTISSLEPEDFAVYYCKQAYDVPFTFGGGTKVEIK
B23: FF2-H2WT H3RY (antibody, V domains shown)
VH: B1 VH with L100R
VL: B1 VL with R24Q, T52S, S97T, L104V
B24: FF2 (antibody, V domains shown)
VH: B1 VH with T55Y, E57F
VL: B1 VL with R24Q, T52S, S97T, L104V
B25: FF2-H2WT (antibody, V domains shown)
VH: B1 VH
VL: B1 VL with R24Q, T52S, S97T, L104V
B26: FF2-H2RG (antibody, V domains shown)
VH: B1 VH with D56R, E57G
VL: B1 VL with R24Q, T52S, S97T, L104V
B27: FF2-H3RY (antibody, V domains shown)
VH: B1 VH with T55Y, E57F, L100R
VL: B1 VL with R24Q, T52S, S97T, L104V

What is called Kd is the equilibrium constant for the complex coming apart. Low readings indicate tighter binding, high ones weaker binding.

Changes are numbered by the printed parent chain.

T1 sequence (P47871 26-136 limits assumed): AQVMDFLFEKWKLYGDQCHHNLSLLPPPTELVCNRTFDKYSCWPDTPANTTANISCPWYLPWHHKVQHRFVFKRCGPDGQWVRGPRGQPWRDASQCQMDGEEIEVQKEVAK

The first assay has as its target T1, glucagon receptor (target of the KD / T½ of Tables 1A, 1B and 2B) (Homo sapiens (Human), UniProt P47871 26-136).
T1 construct: not shown: Human Fc carrier (and any linker) of the ECD-Fc fusion
Kind of assay: not stated; 25° C.
B1 yielded a T½ of 0.0613 h. On the same count and under the same terms, the value for B2 was 0.296 h. The same measure, in the same setting: with B3 the figure was 0.438 h. On the same count and under the same terms, with B4 the figure was 0.228 h. B5: the T½ was found to be 0.0377 h. Still for that read-out and setting: the value for B6 was 0.04 h; that for B7 was 0.36 h; that for B8 was 0.344 h. The same measure, in the same setting: the value for B9 was 0.346 h.

For another assay, the target named is T1, glucagon receptor (target of the KD / …). Kind of assay: not stated; 37° C.
For the molecule B10, the T½ amounted to 7.37 h. Same read-out and setting: with B11 the figure was 12.4 h.

B12 displayed a T½ of 8.53 h.

Turning to B13, the T½ came out at 17.2 h. On the same count and under the same terms, with B14 the figure was 6.36 h. In the case of B15, the T½ came out at 6.89 h. Still for that read-out and setting: the value for B16 was 7.94 h; that for B17 was 5.3 h; that for B18 was 4.19 h. As to B19, the T½ is 14.9 h.

For the next assay the target is unchanged. Kind of assay: not stated (column of Table 1A).
Take B20: the “T½” value is 5.75 min. In turn, B21 had a Kd of 0.64 nM. The same measure, in the same setting: the value for B22 was 10.2 nM.

The next assay has the same target. Nature of the assay: not stated (column of Table 1B).
The molecule B23 returned a dissociation constant (Kd) of 0.224 nM. Still for that read-out and setting: with B24 the figure was 0.171 nM. Same read-out and setting: with B25 the figure was less than 0.2 nM; with B26, 0.187 nM. Same read-out and setting: with B27 the figure was less than 0.125 nM.

For a further assay the target is unchanged. Kind of assay: not stated; 37° C. (entry printed a second time).
The molecule B11 came in with a T½ of 12.4 h.

B14: the T½ worked out at 6.36 h. The same measure, in the same setting: the value for B15 was 6.89 h.
